For one molecule, FRAP, t½ of recovery of GFP-tagged full-length G2L3 on MTs in NIH3T3 cells results are on record in article PMC3137072.

In the assay the target is microtubules (polymerized tubulin) (UniProt Q6B856).
microtubules (polymerized tubulin), sequence (Q6B856 whole entry, looked up): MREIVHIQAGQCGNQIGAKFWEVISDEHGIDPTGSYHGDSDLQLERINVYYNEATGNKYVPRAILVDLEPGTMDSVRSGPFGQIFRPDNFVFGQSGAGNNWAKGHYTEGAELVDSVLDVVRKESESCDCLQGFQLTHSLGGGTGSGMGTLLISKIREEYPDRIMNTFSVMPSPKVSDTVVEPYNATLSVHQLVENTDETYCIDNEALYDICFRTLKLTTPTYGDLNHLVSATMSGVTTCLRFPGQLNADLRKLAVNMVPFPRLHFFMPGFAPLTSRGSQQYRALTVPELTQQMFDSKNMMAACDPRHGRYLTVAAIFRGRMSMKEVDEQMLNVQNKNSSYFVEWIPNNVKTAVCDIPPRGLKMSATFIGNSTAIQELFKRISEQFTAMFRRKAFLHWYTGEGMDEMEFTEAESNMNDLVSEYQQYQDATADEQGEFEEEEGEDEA

B1: GAS2-like 3 (G2L3), full length, GFP-tagged (natural protein)
chain: MQPAIQVWFGEDLPLSPRSPLTPRHGPGLANVCQYDEWIAVRHEATLLPMQEDLSIWLSGLLGIKVKAEKLLEELDNGVLLCQLIDVLQNMVKTCNSEESGNFPMRKVPCKKDAASGSFFARDNTANFLHWCRDIGVDETYLFESEGLVLHKDPRQVYLCLLEIGRIVSRYGVEPPVLVKLEKEIELEETLLNTSGPEDSISIPKSCCRHEELHEAVKHIAEDPPCSCSHRFSIEYLSEGRYRLGDKILFIRMLHGKHVMVRVGGGWDTLQGFLLKYDPCRILQFATLEQKILAFQKGVSNESVPDSPARTPQPPEMNPLSAVNMFQKQNSKPSVPVSIPKSKEKQGRPPGALVPASSLKGGNLGSMSVRSKLPNSPAASSHPKLKSSKGITKKPQAPSNNASSSLASLNPVGKNTSSPALPRTAPCISESPRKCISSPNTPKAKVIPAQNSADLPESTLLPNKCSGKTQPKYLKHNHISSRDNAVSHLAAHSNSSSKCPKLPKANIPVRPKPSFQSSAKMTKTSSKTIATGLGTQSQPSDGAPQAKPVPAQKLKSALNLNQPVSVSSVSPVKATQKSKDKNIVSATKKQPQNKSAFQKTGPSSLKSPGRTPLSIVSLPQSSTKTQTAPKSAQTVAKSQHSTKGPPRSGKTPASIRKPPSSVKDADSGDKKPTAKKKEDDDHYFVMTGSKKPRK
Molecule B1 came in with an FRAP, t½ of recovery of GFP-tagged full-length G2L3 on MTs in NIH3T3 cells of 14.9 s.
